Source: patent publication US20080241166A1

Target: hen egg lysozyme (hen) (UniProt P00698)
Experiment: ELISA on coated HEL (3 mg/ml); detection via the myc tag with 9e10 and anti mouse IgG-HRP

Chain of hen egg lysozyme (hen) (P00698 19-147): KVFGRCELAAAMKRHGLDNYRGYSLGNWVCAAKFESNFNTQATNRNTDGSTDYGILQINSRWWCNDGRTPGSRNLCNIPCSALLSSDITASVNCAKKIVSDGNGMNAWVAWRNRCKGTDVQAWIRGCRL

ELISA signal (background): 0.069
B1: VHCκ chain expressed alone (TAR2-5-Cκ) (protein, not shown: small tags and cut ends)
chain: EVQLLESGGGLVQPGGSLRLSCAASGFTFDLYNMFWVRQAPGKGLEWVSFISQTGRLTWYADSVKGRFTISRDNSKNTLYLQMNSLRAEDTAVYYCAKTLEDFDYWGQGTLVTVSS
